Laboratory results taken from publication PMC9459030 (Journal of Ginseng Research, 2021).
Where no end group is shown, it is not given here. [ ]: non-standard residue; d: D form. pS = N[C@@H](COP(=O)(O)O)C(=O)O

Target: T1, 14-3-3 ζ protein (UniProt P63104 1-245)
T1 sequence (looked up): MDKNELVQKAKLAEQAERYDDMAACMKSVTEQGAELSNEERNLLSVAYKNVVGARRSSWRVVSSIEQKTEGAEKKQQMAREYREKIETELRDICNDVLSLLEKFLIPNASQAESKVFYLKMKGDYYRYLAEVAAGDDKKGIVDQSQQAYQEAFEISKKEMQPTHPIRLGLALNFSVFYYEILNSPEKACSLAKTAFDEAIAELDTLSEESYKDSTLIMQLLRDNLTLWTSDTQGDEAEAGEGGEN
Assay: BLI

Kd: 46.8 µM
koff: 0.0185 s⁻¹
kon: 579 M⁻¹ s⁻¹
Binder: GRPRTT[pS]FAE [p-Ser9 GSK 3β polypeptide (Gly3-pSer9-Glu12)]
